According to publication PMC12102759 (2025):

B1: SH3BP2 peptide 410-425 (SH3 domain-binding protein 2), 16-mer library wild type / TNKS ANK (TNKS 12 ANK repeats, residues 174-649) (parent complex)
chain 1: LPHLQRSPPDGQSFRS
chain 2: TGVPAVSGALRELLEACRNGDVSRVKRLVDAANVNAKDMAGRKSSPLHFAAGFGRKDVVEHLLQMGANVHARDDGGLIPLHNACSFGHAEVVSLLLCQGADPNARDNWNYTPLHEAAIKGKIDVCIVLLQHGADPNIRNTDGKSALDLADPSAKAVLTGEYKKDELLEAARSGNEEKLMALLTPLNVNCHASDGRKSTPLHLAAGYNRVRIVQLLLQHGADVHAKDKGGLVPLHNACSYGHYEVTELLLKHGACVNAMDLWQFTPLHEAASKNRVEVCSLLLSHGADPTLVNCHGKSAVDMAPTPELRERLTYEFKGHSLLQAAREADLAKVKKTLALEIINFKQPQSHETALHCAVASLHPKRKQVTELLLRKGANVNEKNKDFMTPLHVAAERAHNDVMEVLHKHGAKMNALDTLGQTALHRAALAGHLQTCRLLLSYGSDPSIISLQGFTAAQMGNEAVQQILSESTPIRTSD
B2: AXIN1 peptide 235-250 (Axin-1), 16-mer library wild type / PP2A B56 (PPP2R5A B56 domain, residues 1-486) (parent complex)
chain 1: SGYLPTLNEDEEWKAD
chain 2: not shown

Variants of: B1
Test: proteomic peptide phage display deep mutational scan (ProP-PD DMS): M13 P8 16-mer library selected against immobilised GST-tagged bait for four days (rounds), NGS of the eluted pools per day and pseudo-replica; bait immobilised on MaxiSorp plates (10 µg), library pre-cleared on GST, 2 h binding at 4 °C, five washes; one round per day, days 1-4; value from days 2 and 3

Row | Variant | screen value
1 | chain 1 P8A | 0.00935 average fractional NGS count over selection days 2 and 3 (reads of this peptide / all reads for the bait, averaged over …
2 | chain 1 S13M | 0.00197 average fractional NGS count over selection days 2 and 3 (reads of this peptide / all reads for the bait, averaged over …
3 | chain 1 S13D | 0.00033 average fractional NGS count over selection days 2 and 3 (reads of this peptide / all reads for the bait, averaged over …
4 | chain 1 S13Q | 0.00224 average fractional NGS count over selection days 2 and 3 (reads of this peptide / all reads for the bait, averaged over …
5 | chain 1 S13G | 0.00038 average fractional NGS count over selection days 2 and 3 (reads of this peptide / all reads for the bait, averaged over …
6 | chain 1 S13L | 0.00144 average fractional NGS count over selection days 2 and 3 (reads of this peptide / all reads for the bait, averaged over …
7 | chain 1 H3E | 0.000323 average fractional NGS count over selection days 2 and 3 (reads of this peptide / all reads for the bait, averaged over …
8 | chain 1 H3L | 0.000556 average fractional NGS count over selection days 2 and 3 (reads of this peptide / all reads for the bait, averaged over …
9 | chain 1 H3P | 0.000298 average fractional NGS count over selection days 2 and 3 (reads of this peptide / all reads for the bait, averaged over …
10 | chain 1 P9G | 0.000695 average fractional NGS count over selection days 2 and 3 (reads of this peptide / all reads for the bait, averaged over …
11 | chain 1 Q12L | 0.00741 average fractional NGS count over selection days 2 and 3 (reads of this peptide / all reads for the bait, averaged over …
12 | chain 1 Q12K | 0.000431 average fractional NGS count over selection days 2 and 3 (reads of this peptide / all reads for the bait, averaged over …
13 | chain 1 P2V | 0.00125 average fractional NGS count over selection days 2 and 3 (reads of this peptide / all reads for the bait, averaged over …
14 | chain 1 P2N | 0.000461 average fractional NGS count over selection days 2 and 3 (reads of this peptide / all reads for the bait, averaged over …
15 | chain 1 L1Q | 0.00289 average fractional NGS count over selection days 2 and 3 (reads of this peptide / all reads for the bait, averaged over …
16 | chain 1 L1T | 0.0011 average fractional NGS count over selection days 2 and 3 (reads of this peptide / all reads for the bait, averaged over …
17 | chain 1 Q5K | 0.0003 average fractional NGS count over selection days 2 and 3 (reads of this peptide / all reads for the bait, averaged over …
18 | chain 1 Q5D | 0.00109 average fractional NGS count over selection days 2 and 3 (reads of this peptide / all reads for the bait, averaged over …
19 | chain 1 F14Y | 0.00865 average fractional NGS count over selection days 2 and 3 (reads of this peptide / all reads for the bait, averaged over …
20 | chain 1 F14W | 0.00225 average fractional NGS count over selection days 2 and 3 (reads of this peptide / all reads for the bait, averaged over …
21 | chain 1 S7I | 0.000719 average fractional NGS count over selection days 2 and 3 (reads of this peptide / all reads for the bait, averaged over …
22 | chain 1 S7K | 0.00104 average fractional NGS count over selection days 2 and 3 (reads of this peptide / all reads for the bait, averaged over …
23 | chain 1 S7E | 0.00893 average fractional NGS count over selection days 2 and 3 (reads of this peptide / all reads for the bait, averaged over …

Variants of: B2
Test: as above

Row | Variant | screen value
24 | chain 1 E12A | 0.000112 average fractional NGS count over selection days 2 and 3 (reads of this peptide / all reads for the bait, averaged over …
25 | chain 1 E12F | 0.000153 average fractional NGS count over selection days 2 and 3 (reads of this peptide / all reads for the bait, averaged over …
26 | chain 1 E12L | 0.00045 average fractional NGS count over selection days 2 and 3 (reads of this peptide / all reads for the bait, averaged over …
27 | chain 1 E12M | 0.000888 average fractional NGS count over selection days 2 and 3 (reads of this peptide / all reads for the bait, averaged over …
28 | chain 1 E12Q | 0.000677 average fractional NGS count over selection days 2 and 3 (reads of this peptide / all reads for the bait, averaged over …
29 | chain 1 E12P | 0.000257 average fractional NGS count over selection days 2 and 3 (reads of this peptide / all reads for the bait, averaged over …
30 | chain 1 E12S | 0.000153 average fractional NGS count over selection days 2 and 3 (reads of this peptide / all reads for the bait, averaged over …
31 | chain 1 E12I | 0.00181 average fractional NGS count over selection days 2 and 3 (reads of this peptide / all reads for the bait, averaged over …
32 | chain 1 E12V | 0.000291 average fractional NGS count over selection days 2 and 3 (reads of this peptide / all reads for the bait, averaged over …
33 | chain 1 E12Y | 0.000809 average fractional NGS count over selection days 2 and 3 (reads of this peptide / all reads for the bait, averaged over …
34 | chain 1 P5A | 0.00054 average fractional NGS count over selection days 2 and 3 (reads of this peptide / all reads for the bait, averaged over …
35 | chain 1 P5Y | 0.000222 average fractional NGS count over selection days 2 and 3 (reads of this peptide / all reads for the bait, averaged over …
36 | chain 1 D10I | 0.00126 average fractional NGS count over selection days 2 and 3 (reads of this peptide / all reads for the bait, averaged over …
37 | chain 1 D10M | 0.00104 average fractional NGS count over selection days 2 and 3 (reads of this peptide / all reads for the bait, averaged over …
38 | chain 1 D10Q | 0.00101 average fractional NGS count over selection days 2 and 3 (reads of this peptide / all reads for the bait, averaged over …
39 | chain 1 D10V | 0.00335 average fractional NGS count over selection days 2 and 3 (reads of this peptide / all reads for the bait, averaged over …
40 | chain 1 D10W | 0.0017 average fractional NGS count over selection days 2 and 3 (reads of this peptide / all reads for the bait, averaged over …
41 | chain 1 D10S | 0.000583 average fractional NGS count over selection days 2 and 3 (reads of this peptide / all reads for the bait, averaged over …
42 | chain 1 D10N | 0.000347 average fractional NGS count over selection days 2 and 3 (reads of this peptide / all reads for the bait, averaged over …
43 | chain 1 D10A | 0.00348 average fractional NGS count over selection days 2 and 3 (reads of this peptide / all reads for the bait, averaged over …
44 | chain 1 D10T | 0.000731 average fractional NGS count over selection days 2 and 3 (reads of this peptide / all reads for the bait, averaged over …
45 | chain 1 D10H | 0.000355 average fractional NGS count over selection days 2 and 3 (reads of this peptide / all reads for the bait, averaged over …
46 | chain 1 D10L | 0.000595 average fractional NGS count over selection days 2 and 3 (reads of this peptide / all reads for the bait, averaged over …
47 | chain 1 D10F | 0.000124 average fractional NGS count over selection days 2 and 3 (reads of this peptide / all reads for the bait, averaged over …
48 | chain 1 K14R | 0.000196 average fractional NGS count over selection days 2 and 3 (reads of this peptide / all reads for the bait, averaged over …
49 | chain 1 K14N | 0.000231 average fractional NGS count over selection days 2 and 3 (reads of this peptide / all reads for the bait, averaged over …

Row | Variant | screen value
50 | chain 1 K14Q | 0.00109 average fractional NGS count over selection days 2 and 3 (reads of this peptide / all reads for the bait, averaged over …
51 | chain 1 K14D | 0.000812 average fractional NGS count over selection days 2 and 3 (reads of this peptide / all reads for the bait, averaged over …
52 | chain 1 K14M | 0.000958 average fractional NGS count over selection days 2 and 3 (reads of this peptide / all reads for the bait, averaged over …
53 | chain 1 K14H | 0.00281 average fractional NGS count over selection days 2 and 3 (reads of this peptide / all reads for the bait, averaged over …
54 | chain 1 K14T | 0.000943 average fractional NGS count over selection days 2 and 3 (reads of this peptide / all reads for the bait, averaged over …
55 | chain 1 K14P | 0.000647 average fractional NGS count over selection days 2 and 3 (reads of this peptide / all reads for the bait, averaged over …
56 | chain 1 K14G | 0.00056 average fractional NGS count over selection days 2 and 3 (reads of this peptide / all reads for the bait, averaged over …
57 | chain 1 K14F | 0.00121 average fractional NGS count over selection days 2 and 3 (reads of this peptide / all reads for the bait, averaged over …
58 | chain 1 K14Y | 0.00389 average fractional NGS count over selection days 2 and 3 (reads of this peptide / all reads for the bait, averaged over …
59 | chain 1 K14W | 0.00219 average fractional NGS count over selection days 2 and 3 (reads of this peptide / all reads for the bait, averaged over …
60 | chain 1 K14A | 0.000829 average fractional NGS count over selection days 2 and 3 (reads of this peptide / all reads for the bait, averaged over …
61 | chain 1 K14S | 0.000394 average fractional NGS count over selection days 2 and 3 (reads of this peptide / all reads for the bait, averaged over …
62 | chain 1 K14L | 0.00437 average fractional NGS count over selection days 2 and 3 (reads of this peptide / all reads for the bait, averaged over …
63 | chain 1 G2S | 0.000675 average fractional NGS count over selection days 2 and 3 (reads of this peptide / all reads for the bait, averaged over …
64 | chain 1 G2E | 0.000393 average fractional NGS count over selection days 2 and 3 (reads of this peptide / all reads for the bait, averaged over …
65 | chain 1 G2P | 0.0013 average fractional NGS count over selection days 2 and 3 (reads of this peptide / all reads for the bait, averaged over …
66 | chain 1 G2M | 0.0011 average fractional NGS count over selection days 2 and 3 (reads of this peptide / all reads for the bait, averaged over …
67 | chain 1 G2D | 0.000338 average fractional NGS count over selection days 2 and 3 (reads of this peptide / all reads for the bait, averaged over …
68 | chain 1 G2H | 0.000834 average fractional NGS count over selection days 2 and 3 (reads of this peptide / all reads for the bait, averaged over …
69 | chain 1 G2T | 0.00134 average fractional NGS count over selection days 2 and 3 (reads of this peptide / all reads for the bait, averaged over …
70 | chain 1 G2A | 0.00077 average fractional NGS count over selection days 2 and 3 (reads of this peptide / all reads for the bait, averaged over …
71 | chain 1 G2V | 0.000268 average fractional NGS count over selection days 2 and 3 (reads of this peptide / all reads for the bait, averaged over …
72 | chain 1 G2I | 0.000957 average fractional NGS count over selection days 2 and 3 (reads of this peptide / all reads for the bait, averaged over …
73 | chain 1 G2K | 0.000562 average fractional NGS count over selection days 2 and 3 (reads of this peptide / all reads for the bait, averaged over …
74 | chain 1 G2W | 0.00074 average fractional NGS count over selection days 2 and 3 (reads of this peptide / all reads for the bait, averaged over …
75 | chain 1 G2L | 0.000458 average fractional NGS count over selection days 2 and 3 (reads of this peptide / all reads for the bait, averaged over …
